Measured values reported in US5770410A, “Chiral synthesis with modified enzymes” (Genzyme Corporation, priority 1992, dated 1998).

What was measured:
Assay in all cases: Steady-state kinetics, NADH-dependent reduction of 2-oxo acids (A340)
[1] = substrate: CC(=O)C(=O)O; type: biochemical, Bacillus stearothermophilus; conditions: other: -FBP, 25° C., pH 6
Protocol: (§1) Overnight cultures (11) were centrifuged and the packed cells were resuspended in 50 mM triethanolamine, pH 6.0. The cells were sonicated and the debris was removed by centrifugation. The protein in the supernatant was precipitated by the addition of 65% ammonium sulphate. The precipitate was spun down and resuspended in 50 mM triethanolamine, pH 6.0 and dialysed against the same buffer. After dialysis, NADH and FBP were added to the protein to final concentrations of 5 mM and 10 mM before loading onto an oxamate Sepharose column which had been pre-equilibrated with 50 mM triethanoloamine, pH 6.0, 3 mM NADH and 5 mM FBP. After washing off unbound protein with column buffer mutant LDH was eluted with 50 mM triethanolamine, pH 9.0, 0.3 M NaCl. The elutant was precipitated with 65% ammonium sulphate and then resuspended in and dialysed against 50 mM triethanolamine, pH 7.5. The protein was then loaded onto a Q-Sepharose Fast Flow column and eluted with a salt gradient. LDH eluted at a concentration of 0.25M NaCl. For the double glycine mutant enzyme, the first chromatography procedure with oxamate Sepharose was replaced by chromatography on Blue Sepharose -F3GA, otherwise the procedure was essentially the same. All proteins were judged to be greater than 98% pure from the intensity of Coomassie blue staining on an SDS Phast gel (Pharmacia). The yield of protein was usually 0.2 g/l of original broth.
(§2) Steady-state measurements were made by following the reduction in absorbance at 340 nm in the NADH/NAD^+ conversion. All assays were at 25° C. in the buffer Bis-Tris, pH 6, (20 mM), containing KC1 (50 mM) and when used fructose-1,6-bisphosphate at 5 mM. Protein concentration was determined from the absorbance at 280 nm using the value of 0.91 for 1 mg/ml protein in 1 cm path and an Mr of 33,000.
(§3) The specific substrates used in the evaluations are shown in the left column of Table 4. In Table 4, "235/6GG" denotes the mutant enzyme formed by substituting GlyGly for AlaAla at the 235-236 positions of the enzyme (Wilks et al., Biochemistry 1990, 29, 8587-8591), and "WTrs" denotes a mutant derived from the wild-type strain as shown in FIG. 1 of Wilks et al., Biochemistry 1992, 31, 7802-7806.

[2] = substrate: O=C(O)C(=O)CCc1ccccc1; type: biochemical, Bacillus stearothermophilus; conditions: other: +FBP (5 mM), 25° C., pH 6
Protocol: as §1, §2, §3

[3] = substrate: O=C(O)C(=O)Cc1ccccc1; type: biochemical, Bacillus stearothermophilus; conditions: other: +FBP (5 mM), 25° C., pH 6
Protocol: as §1, §2, §3

[4] = substrate: CC(=O)C(=O)O; type: biochemical; conditions: other: -FBP, 25° C., pH 6
Excerpt: (§4) Mutants were identified by making mini-preps and restricting with SacII and XbaI. Mutant mini-preps were restricted with EcoRI and XhoI and the small fragment was subcloned into PKK223-3 containing Ala235Gly, Ala236Gly mutant LDH from which the small EcoRI/XhoI fragment had been removed (Wilks et al. Biochemistry, 1990, 29, 8587). The resulting plasmid (pLDHrs) was transformed into competent E. coli TG2 cells.
as §1, §2, §3

[5] = substrate: CC(C)CC(=O)C(=O)O; type: biochemical; conditions: other: -FBP, 25° C., pH 6
Excerpt: as §4, §1, §2, §3

[6] = substrate: CCCCC(=O)C(=O)O; type: biochemical; conditions: other: -FBP, 25° C., pH 6
Excerpt: as §4, §1, §2, §3

[7] = substrate: O=C(O)C(=O)CCc1ccccc1; type: biochemical; conditions: 25° C., pH 6
Excerpt: as §4, §1, §2, §3

[8] = substrate: O=C(O)C(=O)Cc1ccccc1; type: biochemical; conditions: 25° C., pH 6
Excerpt: as §4, §1, §2, §3

| Protein | Km [1] [µM] | kcat [1] [s⁻¹] | kcat/Km [1] [M⁻¹ s⁻¹] | Km [2] [mM] | kcat [2] [s⁻¹] | kcat/Km [2] [M⁻¹ s⁻¹] | Km [3] [mM] | kcat [3] [s⁻¹] | kcat/Km [3] [M⁻¹ s⁻¹] | Km [4] [mM] | Km [5] [mM] | Km [6] [mM] | Km ([7]; other: +FBP (5 mM)) [mM] | kcat ([7]; other: +FBP (5 mM)) [s⁻¹] | kcat/Km ([7]; other: +FBP (5 mM)) [M⁻¹ s⁻¹] | Km ([7]; other: -FBP) [mM] | Km ([8]; other: +FBP (5 mM)) [mM] | kcat ([8]; other: +FBP (5 mM)) [s⁻¹] | kcat/Km ([8]; other: +FBP (5 mM)) [M⁻¹ s⁻¹] | Km ([8]; other: -FBP) [mM] |
| --- | --- | --- | --- | --- | --- | --- | --- | --- | --- | --- | --- | --- | --- | --- | --- | --- | --- | --- | --- | --- |
| Bacillus stearothermophilus lactate dehydrogenase, wild type, SEQ ID NO: 3 (Geobacillus stearothermophilus) (protein, made in house; host or cells: E. coli) MKNNGGARVVVIGAGFVGASYVFALMNQGIADEIVLIDANESKAIGDAMDFNHGKVFAPKPVDIWHGDYDDCRDADLVVICAGANQKPGETRLDLVDKNIAIFRSIVESVMASGFQGLFLVATNPVDILTYATWKFSGLPHERVIGSGTILDTARFRFLLGEYFSVAPQNVHAYIIGEHGDTELPVWSQAYIGVMPIRKLVESKGEEAQKDLERIFVNVRDAAYQIIEKKGATYYGIAMGLARVTRAILHNENAILTVSAYLDGLYGERDVYIGVPAVINRNGIREVIEIELNDDEKNRFHHSAATLKSVLARAFTR | 2000 | 250 | 50000 | 0.6 | 6 | 10000 | 1.8 | 32.7 | 18000 | – | – | – | – | – | – | – | – | – | – | – |
| Bacillus stearothermophilus lactate dehydrogenase mutant WTrs (restriction-site construct pLDHrs, Cys97Thr, Ala235Gly, Ala236Gly; loop SEQ ID No 7) … (protein, made in house; host or cells: E. coli TG2) MKNNGGARVVVIGAGFVGASYVFALMNQGIADEIVLIDANESKAIGDAMDFNHGKVFAPKPVDIWHGDYDDCRDADLVVITAGANQKPGETRLDLVDKNIAIFRSIVESVMASGFQGLFLVATNPVDILTYATWKFSGLPHERVIGSGTILDTARFRFLLGEYFSVAPQNVHAYIIGEHGDTELPVWSQAYIGVMPIRKLVESKGEEAQKDLERIFVNVRDGGYQIIEKKGATYYGIAMGLARVTRAILHNENAILTVSAYLDGLYGERDVYIGVPAVINRNGIREVIEIELNDDEKNRFHHSAATLKSVLARAFTR | – | – | – | – | – | – | – | – | – | 100 | 28 | 30 | 4 | 6 | 1500 | 12 | 6 | 58 | 9600 | 21 |
| Bacillus stearothermophilus lactate dehydrogenase mutant 235/6GG (Ala235Gly, Ala236Gly) (Geobacillus stearothermophilus; A222G/A223G) (protein, made in house; host or cells: E. coli) MKNNGGARVVVIGAGFVGASYVFALMNQGIADEIVLIDANESKAIGDAMDFNHGKVFAPKPVDIWHGDYDDCRDADLVVICAGANQKPGETRLDLVDKNIAIFRSIVESVMASGFQGLFLVATNPVDILTYATWKFSGLPHERVIGSGTILDTARFRFLLGEYFSVAPQNVHAYIIGEHGDTELPVWSQAYIGVMPIRKLVESKGEEAQKDLERIFVNVRDGGYQIIEKKGATYYGIAMGLARVTRAILHNENAILTVSAYLDGLYGERDVYIGVPAVINRNGIREVIEIELNDDEKNRFHHSAATLKSVLARAFTR | – | – | – | 13 | 7 | 538 | 4.5 | 53.4 | 12000 | – | – | – | – | – | – | – | – | – | – | – |
